Results from US9181543 (OBODIES, dated 2015).

Columns and labels:
[1] = biological target: T1, BSA (Bos taurus, UniProt P02769); assay: micropanning: monoclonal phage on BSA coated on a 96-well plate, bound phage eluted and counted
T1 construct: commercial protein; also called Bovine Serum Albumine

[2] = biological target: T2, hen egg white lysozyme (Gallus gallus, UniProt P00698 19-147); assay: phage ELISA, multivalent display, immobilised hen egg white lysozyme, anti-M13 antibody and HRP-conjugated secondary antibody, absorbance
T2 construct: mature; The residue numbers E35, D52, W63, D101 and N103 fit mature numbering; also called hen egg lysozyme; Gallus gallus egg white lysozyme
T2 sequence (P00698 19-147): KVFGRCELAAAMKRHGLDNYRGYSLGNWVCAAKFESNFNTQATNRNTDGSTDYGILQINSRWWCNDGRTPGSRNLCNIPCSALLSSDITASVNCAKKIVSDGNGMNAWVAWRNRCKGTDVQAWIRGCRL
Procedure: (§1) Phage ELISA experiments were performed to analyse selected clones for binding to lysozyme. Ninety-six-well ELISA plates were coated with 5 ug/ml hen egg lysozyme, 5 ug/ml RNaseA or 1% BSA in PBS at 4° C. overnight. After two washes with TBS, plates were blocked with blocking buffer (5% skim milk in TBS) for one hour at RT before phage (10^9 cfu/well, derived from VCS-M13d3) were added in 2.5% skim milk-TBS-T. Plates were incubated for 2 hours at RT with agitation. After 10 washes with H_2O, mouse anti-M13 protein VIII diluted in blocking buffer was added and incubated for 1 h at RT. Plates were washed 4 times with H_2O and horseradish peroxidase (HRP)-coupled rabbit-anti-mouse immunoglobulins (Pierce) in blocking buffer were added to the wells and incubated for 1 h at RT. Wells were washed 4 times with H_2O and 50 ul substrate solution (1 mg/ml o-phenylene-diamine in PBS 0.030% H_2O_2) was added per well. The reaction was stopped after ~15 min by addition of 25 ul 2.5 M H_2SO_4 and the absorbance was recorded at 492 nm.
(§2) BSA (white), RNaseA (hatched) and hen egg white lysozyme (black) were immobilised and incubated with monoclonal phage samples. Bound particles were detected with a mouse anti-M13 primary antibody and an HRP-conjugated anti-mouse secondary antibody. […] Bound phage were eluted and counted by bacterial infection.

[3] = biological target: T3, RNaseA (Bos taurus, UniProt P61823); assay: phage ELISA, multivalent display, immobilised RNaseA, anti-M13 antibody and HRP-conjugated secondary antibody, absorbance
T3 construct: commercial protein
T3 sequence (single chain, looked up): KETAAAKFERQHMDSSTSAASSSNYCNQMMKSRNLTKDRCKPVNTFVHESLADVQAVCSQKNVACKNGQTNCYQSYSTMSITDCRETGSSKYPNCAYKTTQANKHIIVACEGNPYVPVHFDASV
Procedure: as §1, §2

[4] = biological target: T2, hen egg white lysozyme; assay: micropanning: monoclonal phage on lysozyme coated on a 96-well plate, bound phage eluted and counted by bacterial infection
Procedure: BSA (white), RNaseA (hatched) and hen egg white lysozyme (black) were immobilised and incubated with monoclonal phage samples. Bound particles were detected with a mouse anti-M13 primary antibody and an HRP-conjugated anti-mouse secondary antibody. […] A 96-well plate was coated with lysozyme (black bars) or BSA (white bars) and incubated with monoclonal phage samples from clones picked after 6 rounds of selection. Bound phage were eluted and counted by bacterial infection.
Hen egg white lysozyme is a small stable protein which is commercially available and has a number of medically important human homologues. After four rounds of panning on immobilised lysozyme, enrichment of bound phage was observed. A further two more rounds of panning were performed before clones were randomly picked and screened for binding to lysozyme. Monoclonal phage samples were then prepared and studies were undertaken to characterize binding in a 'micropanning' approach on lysozyme immobilised on a 96-well ELISA plate. Bound phage were eluted and counted. […] These clones were sequenced. Sequences for some of the clones were identical (L14 and L15; L4 and L18; L8 and L21) narrowing down the number of unique clones to six.

[5] = biological target: T3, RNaseA; assay: phage ELISA, immobilised RNaseA, anti-M13 antibody and HRP-conjugated secondary antibody, absorbance
[6] = biological target: T1, BSA; assay: phage ELISA, immobilised BSA, anti-M13 antibody and HRP-conjugated secondary antibody, absorbance
[7] = biological target: T2, hen egg white lysozyme; assay: phage ELISA on immobilised lysozyme, multivalent display
[8] = biological target: T2, hen egg white lysozyme; assay: SPR (Biacore), lysozyme amine-coupled to CM5 chip, L6 as analyte from 370 µM in 1:2 dilutions, steady-state response plot
Procedure: The ligand lysozyme was coupled to a CM5 Biacore sensor chip, at 30 µg/mL in sodium acetate buffer at pH 4.3 via the primary amine groups of the protein. The second of four flow cells available on the chip was activated with 35 µL, at 5 µL/min, of a 1:1 mixture of EDC:NHS (commercially available from Biacore). Lysozyme was coupled to the activated surface with successive injections of between 10-20 µL, until an adequate response was seen. Remaining uncoupled active groups on the chip were deactivated with an injection of ethanolamine-HCl. For analysis, OB3 13mRL L6 was organized in a 1:2 dilution series of six concentrations, beginning at 370 µM in running buffer, plus a buffer-only blank. Each of the seven samples were analyzed in duplicate for 1 min @ 25 µL/min, in random order, using the first flow cell as a reference. The response curves were visualized and processed using BIAevaluation (Biacore). Relative response at each concentration was averaged and plotted to determine Rmax and kD using Sigma Plot (Systat Software, Inc.).

[9] = biological target: T2, hen egg white lysozyme; assay: surface plasmon resonance; L8, from the crystal-structure interface table

T1 sequence (P02769 25-607 limits assumed): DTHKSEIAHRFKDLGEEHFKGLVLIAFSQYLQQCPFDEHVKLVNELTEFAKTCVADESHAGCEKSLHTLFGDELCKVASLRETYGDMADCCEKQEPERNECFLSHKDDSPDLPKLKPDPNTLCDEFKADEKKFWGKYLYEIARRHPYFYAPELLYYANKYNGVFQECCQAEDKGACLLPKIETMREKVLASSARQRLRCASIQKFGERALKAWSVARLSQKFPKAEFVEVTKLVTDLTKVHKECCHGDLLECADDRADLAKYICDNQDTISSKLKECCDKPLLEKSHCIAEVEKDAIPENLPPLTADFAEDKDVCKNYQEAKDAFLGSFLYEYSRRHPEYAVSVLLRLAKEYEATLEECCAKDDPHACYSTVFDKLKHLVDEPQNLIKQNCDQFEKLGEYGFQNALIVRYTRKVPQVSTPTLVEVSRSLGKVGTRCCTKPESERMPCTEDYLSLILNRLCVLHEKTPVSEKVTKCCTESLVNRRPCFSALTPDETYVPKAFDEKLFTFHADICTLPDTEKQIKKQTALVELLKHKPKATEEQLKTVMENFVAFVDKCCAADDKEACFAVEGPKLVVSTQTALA

B1: L5 (aspRS-OB 13mRL mutant) displayed on phage as pIII fusion (designed binder)
chain: VYPKKTHWTAEITPNLHGTEVVVAGWVTDLVDAGTWKFVQVADREGGANVWVSLVAGKTPDHLFKVFAELSREDVVVIKGIVEASKLPSYGVEIFPSEIWILNKAKPLPID
notes: Monoclonal phage; Monovalent display in micropanning, multivalent display in ELISA; not shown: c-myc tag and pIII of phagemid pRPSP2 (display carriers at the C end)
B1: no binding [1]; binds [2].

B2: L14 (aspRS-OB 13mRL mutant) displayed on phage as pIII fusion (designed binder)
chain: VYPKKTHWTAEITPNLHGTEVVVAGWVSDLLDAGRAKYVFVYDREGGAEVMVTLAAGKTPDHLFKVFAELSREDVVVIKGIVEASKGWRDGVEIFPSEIWILNKAKPLPID
notes: Monoclonal phage; also called L15; L32; not shown: c-myc tag and pIII of phagemid pRPSP2 (display carriers at the C end)
B2: binds [3]; no binding [1]; binds [2].

B3: L16 (aspRS-OB 13mRL mutant) displayed on phage as pIII fusion (designed binder)
chain: VYPKKTHWTAEITPNLHGTEVVVAGWVASLVDGGPRKWVFVRDREGGAEVTVELTAGKTPDHLFKVFAELSREDVVVIKGIVEASKGLRWGVEIFPSEIWILNKAKPLPID
notes: Monoclonal phage, monovalent display, micropanning only; not shown: c-myc tag and pIII of phagemid pRPSP2 (display carriers at the C end)
B3: binds [4]; no binding [1].

B4: L6 (aspRS-OB 13mRL mutant) displayed on phage as pIII fusion (designed binder)
chain: VYPKKTHWTAEITPNLHGTEVVVAGWVEDLVDAGKTKWVFVCDREGGAQVIVELVAGKTPDHLFKVFAELSREDVVVIKGIVEASKSRAVGVEIFPSEIWILNKAKPLPID
notes: as for B1
B4: no binding [1].

B5: L8 (aspRS-OB 13mRL mutant) displayed on phage as pIII fusion (designed binder)
chain: VYPKKTHWTAEITPNLHGTEVVVAGWVASLGDYGRVKIVKVSDREGGAAVPVYLEAGKTPDHLFKVFAELSREDVVVIKGIVEASKGVGRGVEIFPSEIWILNKAKPLPID
notes: Monoclonal phage; also called L21; L33; not shown: c-myc tag and pIII of phagemid pRPSP2 (display carriers at the C end)
B5: no binding [1].

B6: L34 (aspRS-OB 13mRL mutant) displayed on phage as pIII fusion (designed binder)
chain: VYPKKTHWTAEITPNLHGTEVVVAGWVVGLMDEGALKGVEVRDREGGAPVEVTLEAGKTPDHLFKVFAELSREDVVVIKGIVEASKGYGSGVEIFPSEIWILNKAKPLPID
notes: Monoclonal phage, multivalent display, ELISA; not shown: c-myc tag and pIII of phagemid pRPSP2 (display carriers at the C end)
B6: no binding (tested: 10^9 cfu/well) [5]; no binding (tested: 10^9 cfu/well) [6]; binds [7].

B7: OB3 13mRL L6, expressed and purified (designed binder)
chain: B4 chain
notes: Analyte in the Biacore experiment; also called Clone L6; selected OB-fold domain L6
Work on B7 yielded a Kd [8] of 36 µM.

B8: OBody L8, purified, GST tag removed (designed binder)
chain: B5 chain
notes: GST tag removed with rTEV protease; Used for co-crystallisation with lysozyme
In the case of B8, the Kd [9] is reported as 36 µM.
